Results on six molecules are retold here after patent US20050100554A1 (published 2005).

The chains are these.
T1: EphB1 (human, UniProt P54762 18-984)
T1 construct: also called cbe_3810791
T1 sequence: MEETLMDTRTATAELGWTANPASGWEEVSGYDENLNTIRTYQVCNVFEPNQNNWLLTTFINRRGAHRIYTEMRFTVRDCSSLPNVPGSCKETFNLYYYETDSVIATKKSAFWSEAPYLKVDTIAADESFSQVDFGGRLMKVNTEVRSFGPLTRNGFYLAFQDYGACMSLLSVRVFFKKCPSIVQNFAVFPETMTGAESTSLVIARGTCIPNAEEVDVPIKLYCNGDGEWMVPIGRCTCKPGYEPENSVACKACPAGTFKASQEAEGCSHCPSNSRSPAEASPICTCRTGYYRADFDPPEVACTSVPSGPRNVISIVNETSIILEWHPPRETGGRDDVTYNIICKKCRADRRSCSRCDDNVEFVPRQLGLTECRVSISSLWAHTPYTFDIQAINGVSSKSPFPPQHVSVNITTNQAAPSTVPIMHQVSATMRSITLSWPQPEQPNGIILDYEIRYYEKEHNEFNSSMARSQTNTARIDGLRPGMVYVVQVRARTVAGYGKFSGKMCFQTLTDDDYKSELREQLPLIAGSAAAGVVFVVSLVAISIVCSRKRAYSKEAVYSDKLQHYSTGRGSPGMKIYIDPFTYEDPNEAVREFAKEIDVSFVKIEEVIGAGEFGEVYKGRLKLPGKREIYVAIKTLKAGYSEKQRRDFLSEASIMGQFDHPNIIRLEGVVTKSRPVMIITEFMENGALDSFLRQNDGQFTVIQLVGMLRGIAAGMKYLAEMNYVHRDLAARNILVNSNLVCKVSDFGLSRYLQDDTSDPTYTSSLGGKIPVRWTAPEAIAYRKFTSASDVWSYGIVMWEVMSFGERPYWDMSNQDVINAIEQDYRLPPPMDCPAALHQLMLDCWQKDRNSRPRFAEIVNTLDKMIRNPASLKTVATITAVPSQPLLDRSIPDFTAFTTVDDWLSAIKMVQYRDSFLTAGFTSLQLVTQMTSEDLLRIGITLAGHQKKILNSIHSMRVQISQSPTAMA

T2: pumilio homolog 1 (Drosophila) (human, UniProt Q14671 2-1186)
T2 construct: also called PUM1; cbe_4540466
T2 sequence: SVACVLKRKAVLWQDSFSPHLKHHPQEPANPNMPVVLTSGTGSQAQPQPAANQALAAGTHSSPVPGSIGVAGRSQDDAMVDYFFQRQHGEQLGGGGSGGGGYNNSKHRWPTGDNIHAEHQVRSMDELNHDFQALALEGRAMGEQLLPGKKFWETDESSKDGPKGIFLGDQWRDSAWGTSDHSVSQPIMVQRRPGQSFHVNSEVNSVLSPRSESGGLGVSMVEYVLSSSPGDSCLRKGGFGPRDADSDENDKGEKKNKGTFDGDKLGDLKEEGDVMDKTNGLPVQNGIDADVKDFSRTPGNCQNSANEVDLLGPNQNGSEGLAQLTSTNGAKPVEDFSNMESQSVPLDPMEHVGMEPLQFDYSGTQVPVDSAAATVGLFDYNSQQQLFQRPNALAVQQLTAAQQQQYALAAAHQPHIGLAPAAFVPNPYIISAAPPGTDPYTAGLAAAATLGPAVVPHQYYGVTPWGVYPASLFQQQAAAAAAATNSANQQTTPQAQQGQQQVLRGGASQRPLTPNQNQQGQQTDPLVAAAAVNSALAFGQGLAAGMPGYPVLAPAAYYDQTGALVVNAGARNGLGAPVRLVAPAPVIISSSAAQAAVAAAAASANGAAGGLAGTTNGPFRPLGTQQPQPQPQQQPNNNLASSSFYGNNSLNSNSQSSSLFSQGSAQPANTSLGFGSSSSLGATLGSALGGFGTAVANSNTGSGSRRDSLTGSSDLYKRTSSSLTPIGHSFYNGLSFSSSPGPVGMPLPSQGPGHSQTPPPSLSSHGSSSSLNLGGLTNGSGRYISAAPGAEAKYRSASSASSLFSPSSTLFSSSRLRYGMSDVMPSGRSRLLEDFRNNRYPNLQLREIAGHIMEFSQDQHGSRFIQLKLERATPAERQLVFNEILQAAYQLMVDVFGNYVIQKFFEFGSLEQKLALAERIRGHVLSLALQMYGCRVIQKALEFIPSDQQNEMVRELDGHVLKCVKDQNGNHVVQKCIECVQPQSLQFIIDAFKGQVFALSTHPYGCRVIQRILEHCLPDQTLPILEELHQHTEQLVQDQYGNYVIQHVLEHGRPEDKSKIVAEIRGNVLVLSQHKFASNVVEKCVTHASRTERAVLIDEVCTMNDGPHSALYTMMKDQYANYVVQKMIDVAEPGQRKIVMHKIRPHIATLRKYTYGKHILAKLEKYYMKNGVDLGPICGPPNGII

B1: TRAF interacting protein (other)
chain: MPIRALCTICSDFFDHSRDVAAIHCGHTFHLQCLIQSFETAPSRTCPQCRIQVGKRTIINKLFFDLAQEEENVLDREFLKNELDNVRAQLSQKDKEKRDSQVIIDTLRDTLEERNATVVSLQQALGKAEMLCSTLKKQMKYLEQQQDETKQAQEEAGRLRSKMKTMEQIELLLQSQLPEVEEMIRDMGVGQSAVEQLAVYCVSLKKEYENLKEARKASGEVADKLRKDLFSSRSKLQTVYSELDQAKLELKSAQKDLQSADKEIMSLKKKLTMLQETLNLPPVASETVDRLVLESPAPVEVNLKLRRPSFRDDIDLNATFDVDTPPARPSSSQHGYYEKLCLEKSHSPIQDVPKKICKGPRKESQLSLGGQSCAGEPDEELVGAFPIFVRNAILGQKQPKRPRSESSCSKDVVRTGFDGLGGRTKFIQPTDTVMIRPLPVKPKTKVKQRVRVKTVPSLFQAKLDTFLWS
notes: also called TRIP; cbe_3340492
B2: Human Papillomavirus 1a E1 (other)
chain: MADNKGTENDWFLVEATDCEETLEETSLGDLDNVSCVSDLSDLLDEAPQSQGNSLELFHKQESLESEQELNALKRKLLYSPQARSADETDIASISPRLETISITKQDKKRYRRQLFSQDDSGLELSLLQDETENIDESTQVDQQQKEHTGEVGAAGVNILKASNIRAALLSRFKDTAGVSFTDLTRSYKSNKTCCGDWVLAVWGVRENLIDSVKELLQTHCVYIQLEHAVTEKNRFLFLLVRFKAQKSRETVIKLITTILPVDASYILSEPPKSRSVAAALFWYKRSMSSTVFTWGTTLEWIAQQTLINHQLDSESPFELCKMVQWAYDNGHTEECKIAYYYAVLADEDENARAFLSSNSQAKYVKDCAQMVRHYLRAEMAQMSMSEWIFRKLDNVEGSGNWKEIVRFLRFQEVEFISFMIAFKDLLCGKPKKNCLLIFGPPNTGKSMFCTSLLKLLGGKVISYCNSKSQFWLQPLADAKIGLLDDATKPCWDYMDIYMRNALDGNTICIDLKHRAPQQIKCPPLLITSNIDVKSDTCWMYLHSRISAFKFAHEFPFKDNGDPGFSLTDENWKSFFERFWQQLELSDQEDEGNDGKPQQSLRLTARAANEPI
notes: also called HPV 1a E1; cbe_552975
B3: TDE1 (other)
chain: MGAVLGVFSLASWVPCLCSGASCLLCSCCPNSKNSTVTRLIYAFILLLSTVVSYIMQRKEMETYLKKIPGFCEGGFKIHEADINADKDCDVLVGYKAVYRISFAMAIFFFVFSLLMFKVKTSKDLRAAVHNGFWFFKIAALIGIMVGSFYIPGGYFSSVWFVVGMIGAALFILIQLVLLVDFAHSWNESWVNRMEEGNPRLWYAALLSFTSAFYILSIICVGLLYTYYTKPDGCTENKFFISINLILCVVASIISIHPKIQEHQPRSGLLQSSLITLYTMYLTWSAMSNEPDRSCNPNLMSFITRITAPTLAPGNSTAVVPTPTPPSKSGSLLDSDNFIGLFVFVLCLLYSSIRTSTNSQVDKLTLSGSDSVILGDTTTSGASDEEDGQPRRAVDNEKEGVQYSYSLFHLMLCLASLYIMMTLTSWYSPDAKFQSMTSKWPAVWVKISSSWVCLLLYVWTLVAPLVLTSRDFS
notes: also called cbe_3926508
B4: hypothetical protein FLJ13236 (other)
chain: MAKGLLVTYALWAVGGPAGLHHLYLGRDSHALLWMLTLGGGGLGWLWEFWKLPSFVAQANRAQGQRQSPRGVTPPLSPIRFAAQVIVGIYFGLVALISLSSMVNFYIVALPLAVGLGVLLVAAVGNQTSDFKNTLGSAFLTSPIFYGRPIAILPISVAASITAQRHRRYKALVASEPLSVRLYRLGLAYLAFTGPLAYSALCNTAATLSYVAETFGSFLNWFSFFPLLGRLMEFVLLLPYRIWRLLMGETGFNSSCFQEWAKLYEFVHSFQDEKRQLAYQVLGLSEGATNEEIHRSYQELVKVWHPDHNLDQTEEAQRHFLEIQAAYEVLSQPRKPWGSRR
notes: also called cbe_71919
B5: interferon regulatory factor 1 (other)
chain: MPITRMRMRPWLEMQINSNQIPGLIWINKEEMIFQIPWKHAAKHGWDINKDACLFRSWAIHTGRYKAGEKEPDPKTWKANFRCAMNSLPDIEEVKDQSRNKGSSAVRVYRMLPPLTKNQRKERKSKSSRDAKSKAKRKSCGDSSPDTFSDGLSSSTLPDDHSSYTVPGYMQDLEVEQALTPALSPCAVSSTLPDWHIPVEVVPDSTSDLYNFQVSPMPSTSEATTDEDEEGKLPEDIMKLLEQSEWQPTNVDGKGYLLNEPGVQPTSVYGDFSCKEEPEIDSPGGDIGLSLQRVFTDLKNMDATWLDSLLTPVRLPSIQAIPCAP
notes: also called IRF1; cbe_3001381
B6: Human Papillomavirus 1a L2 (other)
chain: MYRLRRKRAAPKDIYPSCKISNTCPPDIQNKIEHTTIADKILQYGSLGVFLGGLGIGTARGSGGRIGYTPLGEGGGVRVATRPTPVRPTIPVETVGPSEIFPIDVVDPTGPAVIPLQDLGRDFPIPTVQVIAEIHPISDIPNIVASSTNEGESAILDVLRGNATIRTVSRTQYNNPSFTVASTSNISAGEASTSDIVFVSNGSGDRVVGEDIPLVELNLGLETDTSSVVQETAFSSSTPIAERPSFRPSRFYNRRLYEQVQVQDPRFVEQPQSMVTFDNPAFEPELDEVSIIFQRDLDALAQTPVPEFRDVVYLSKPTFSREPGGRLRVSRLGKSSTIRTRLGTAIGARTHFFYDLSSIAPEDSIELLPLGEHSQTTVISSNLGDTAFIQGETAEDDLEVISLETPQLYSEEELLDTNESVGENLQLTITNSEGEVSILDLTQSRVRPPFGTEDTSLHVYYPNSSKGTPIINPEESFTPLVIIALNNSTGDFELHPSLRKRRKRAYV
notes: also called HPV 1a L2; cbe_252041

In test [1] the target is B2. Nature of the test: Y2H; INT ID 582.
Another test addresses T3, TLK2 (human, UniProt Q86UE8 1-772, limits assumed).
T3 construct: Y2H Gal4 fusion; also called cbe_4269167
As to the kind of experiment: Y2H; INT ID 584.

The target in a further test is T4, NDUFAB1 (human, UniProt O14561 69-156).
T4 construct: also called cbe_4269931
Nature of the test: Y2H; INT ID 587.

For test [2], the target named is B2. As to the kind of experiment: Y2H; INT ID 583.
Test [3] deals with B2. As to the kind of experiment: Y2H; INT ID 579.
Test [4] deals with B2. As to the kind of experiment: Y2H; INT ID 581.
In the next test the target is T1, EphB1. Nature of the test: Y2H; INT ID 448.
The next test has as its target T5, GSN (human, UniProt P06396 28-782).
T5 construct: also called cbe_4248793
As to the kind of experiment: Y2H; INT ID 449.

The target in test [5] is T2, pumilio homolog 1 (Drosophila). Nature of the test: Y2H; INT ID 452.

T3 sequence (Q86UE8 whole entry, the tested form may be a part): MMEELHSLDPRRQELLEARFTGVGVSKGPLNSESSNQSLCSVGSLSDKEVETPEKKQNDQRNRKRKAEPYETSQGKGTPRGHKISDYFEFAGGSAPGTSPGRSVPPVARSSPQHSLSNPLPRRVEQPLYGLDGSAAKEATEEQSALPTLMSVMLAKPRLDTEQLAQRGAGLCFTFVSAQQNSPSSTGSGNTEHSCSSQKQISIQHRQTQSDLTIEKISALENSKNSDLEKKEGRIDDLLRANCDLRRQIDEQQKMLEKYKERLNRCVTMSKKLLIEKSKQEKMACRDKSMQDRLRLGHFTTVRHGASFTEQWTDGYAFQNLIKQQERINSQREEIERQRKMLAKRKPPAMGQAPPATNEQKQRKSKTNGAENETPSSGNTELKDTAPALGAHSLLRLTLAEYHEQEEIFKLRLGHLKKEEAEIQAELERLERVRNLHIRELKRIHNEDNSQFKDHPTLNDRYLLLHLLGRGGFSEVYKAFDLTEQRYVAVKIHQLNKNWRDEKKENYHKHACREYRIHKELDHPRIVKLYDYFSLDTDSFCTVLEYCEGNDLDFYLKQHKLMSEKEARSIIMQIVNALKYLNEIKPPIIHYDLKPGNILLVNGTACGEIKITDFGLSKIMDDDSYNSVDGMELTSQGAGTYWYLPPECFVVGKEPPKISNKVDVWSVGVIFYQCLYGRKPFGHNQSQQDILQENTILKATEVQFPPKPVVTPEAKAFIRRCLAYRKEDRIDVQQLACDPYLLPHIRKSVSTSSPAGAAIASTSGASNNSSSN
T5 sequence (P06396 28-782 limits assumed): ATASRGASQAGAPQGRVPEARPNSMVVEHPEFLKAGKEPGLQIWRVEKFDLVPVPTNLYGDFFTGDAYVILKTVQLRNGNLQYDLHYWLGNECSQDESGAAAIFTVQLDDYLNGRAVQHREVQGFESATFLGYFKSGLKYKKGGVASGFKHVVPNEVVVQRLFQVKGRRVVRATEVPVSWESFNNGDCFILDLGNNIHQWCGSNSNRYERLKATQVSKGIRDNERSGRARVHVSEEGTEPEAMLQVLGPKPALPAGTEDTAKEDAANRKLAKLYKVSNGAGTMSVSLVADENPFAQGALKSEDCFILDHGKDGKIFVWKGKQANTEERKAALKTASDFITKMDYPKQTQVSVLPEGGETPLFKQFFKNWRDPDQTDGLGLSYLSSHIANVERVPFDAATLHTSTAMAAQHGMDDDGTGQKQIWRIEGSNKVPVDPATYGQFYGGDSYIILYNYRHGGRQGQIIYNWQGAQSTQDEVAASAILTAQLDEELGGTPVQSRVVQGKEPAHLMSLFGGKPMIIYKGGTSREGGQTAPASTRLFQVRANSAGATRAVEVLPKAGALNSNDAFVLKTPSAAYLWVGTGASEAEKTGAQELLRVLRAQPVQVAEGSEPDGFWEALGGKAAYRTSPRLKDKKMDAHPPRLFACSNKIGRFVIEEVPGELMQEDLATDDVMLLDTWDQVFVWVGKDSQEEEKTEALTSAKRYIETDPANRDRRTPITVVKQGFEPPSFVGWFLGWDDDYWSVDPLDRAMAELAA

Take B1: the binding result in test [1] is listed as “binds”. As for B2, the binding result in the test with TLK2 and with NDUFAB1 was “binds” throughout. For the molecule B3, the binding result in test [2] is listed as “binds”.

With B4, the binding result in test [3] was “binds”. In the case of B5, in test [4], the binding result is “binds”. Turning to B6, the binding result (with EphB1; with GSN; in test [5]) was “binds” each time.
